From the NTF2 design screens of Basanta et al. (2020)

Assay: protease stability score; higher = more stable; yeast display proteolysis, trypsin and chymotrypsin;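 also: relative to predicted unfolded state with 0 unfolded-like and 1 meaning tenfold more protease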

Sequence	protease stability score
DEILHAWSRALTILLEIWKTGNEEEVEKMFDPNTRLIIGDKILHGREHIEDFVRRVDVADMHEFRVHDSHKYGEKIDIDGHVTGRLVIGDKEVRQETRVRSIIIKVDGKWIIHRLTFI	0.907
DEINEDLERQARLFYHLWLTGDEEILEKLVDPHVRIILVFNGVPKQDHGREWLMKLFEEIRVEHFEIKTFEIQGEKAIMDTHEIIHVNGKRTRLRVHLWLTMVNGRIKTIEIRFV	2.13
DEINKMLKEVLDRYTEAIRTGDEDILLELLDPNTRVIINGQDKHGREYWYTWFAELLKRVDHQDVRFHEIRLQGDKVQVDVELIFNAENHHLHIRTDIIIEKFDGRWIITEFRMH	1.38
DEIQRLMKYVFEEWVKWFLTGDEEKFNKMVDPDVRLIVNGQHSHGREKANEMWEIYYERFDYIHEFRVHSIRIQGDKVHVDVRLIGRQGDKTIDTRTEIHLVIIDGRIKRAEVRVE	2.62
DEIREEMEKVFRVFIHNMFTGDFEKLEELADPNARSKVDGVDDHGMHKFLRHWLHHVRRYGMKVEFEVHHIDVQGDKVQIDTRIVIDYNGRRFEWKSELIAVKIDGQWLIKRIIIH	1.6
DEIREESERFARKLVHDWQTGDWRSLLLLMDPNVRLILHFNGVEYRFHGMEIVLEWLKRLIERVDHVFFHVKDIRIQGDKIELRIEEEFRQGDKSRRHDVVLHLVVIDGKIKSISFEVL	2.7
DEIRKMVEESFEIILHSILTGDEHIEEFLADPHVRILINGVTFHGREEFHKLIEHYLKHWRIKDSKVDHVHAQGEKIEMRVTIHGTVDGQEQTREVIIIAKKVDGRWSMKHVEVR	2.08
DEITEHTRSLMEVMLRVWETGDWKRFRELADPNVRMNVNGREVHGRDSVAKEIYKMLSDLGVDHSTTHHVDLIGNKAHHDVRMFFNGRETEIRIDIVLINGKVREVNIEIHTR	2.14
DEITETAERLLRLWVHNFETGNWKKMVDLIDPNARLDVNGRHIHGWEEIAKHLTDELREWRIREIRIRDVKFIDGVNHTHIESDIEYDGRRDRTEMRIIIVVVNGRIKSVKFEIL	1.2
DEITHEIEHNLKLLLKAWETGDEHLLTEMIDPHDKIHIGDKTIIGRELRLEIEKRLGAKVVEVEIKRIEVQGDKILMHGTIHIEIGDKRFERESRFVAHKFNGRWHQKSLDII	1.21
DEITRELKHIFEEVIRAILTGDWRRLHHLLDPRVRSKFEFENRHVDLHGMETVLHWMERWSQELRVEDFHLNDFRVIGDYIVLDGRVQNRQGDKKIDVRVELIVFVVNGKVTELRETSR	1.17
DEITTLFRKILELMEHALKTGDWEIHKRLMDPHTKSNVNGVVAIGREELDKLWKELDKQVDHVEDSHFTEFRIQGDYIRIHVQIRIRVGDKFHDLKVDYHLVIINGVMKSSSVTFH	0.963
DEIVEMVREIAEEILHAELTGDEDKFKKLIDPNVRLQINGKDIHGMEDFRKWNEEWRIHHIEVKHLDIFEGHSRMDGKLDGTINGQRRNLKTILEIKVVDGRVKEITIHVL	1.12
DEIYEDIKHIVDLLSHAHETGDEHELKHLADPNVKWIINGVELVGWEDFRKLLEHLRHKRVHMDPRDVKRQGDYIHVTAELRFTGVFNGREREETFEVHLHMKKVNGRWLLTSVRVK	1.48
DEKDEFNHKIAHQFSESLHTGDFKLLESLFDPNVRSDINGREIIGMEELVHFWEEWKRKFPNAKERYRTESIEHQGEKTISNMRVDLHQGDFHLHREWRVEIHIIDGVVKEVRIENR	1.23
DEKDEHMENLMREFMHSTLTGDEELLERMADPHVKVIVNGKELIGRESWRKWLEELEKRFKHAKFIWLLHRVDVQGEKANSDGVRRINFDGVNINLKTHIFIHVVNGKLKEIEIHDK	1.33
DEKDEKLLRFAHEIIELFLTGNEERFTELLDPRVKLDIDGKNAVGREETQRLWEEILHRIDVMHIRIHRYKAQGNKVILDGLIHIEVGDKNEERHSRLHIHVYDGKIKSIRLEYH	2.08
DEKDELMERIARLMMEYLDTGDEENLNKLADPNVKIDIRIGDKVIDDHGMENLLHRLRHIRSNLRVHNFHAQGDFVKIDTRVTFHVNGQDIHHTVEVRLFIVNGKIHRIEFIFR	2.6

Sequence	protease stability score
DEKDKITQDLVKNIIDLFRTGNEDDLRRLADPHVQTHVNGRTIIGMEDASRKIKEILEELGIDHVHWHHVQAQGEKVEIHMEHRVGDKNWELIIRMDLVNGRIKRQEVELR	0.927
DEKDKMSEVTLKLYIHWFLTGDWKSLFDLVDPHMQVRVGDKKFHGREQAVEEIERLLKRIDHITHIQERSFEIIGNKVHLDGELNVIIDGKRIVKDQIIIAVKIDGKWLLQIDEFE	1.92
DEKDNVVEHLARRLIEAELTGDWKFLSELIDPNVRVQVGNKKSHGREEYVHIAEEWWIHEQHIRHVEIQGDKVHLEVETDMVVDGRRVRIEIEIHIHIINGRIKEIRINIV	0.989
DEKDRISKKIVELWMRALITGDEEEMDRMADPDVRIKYGDKVSHGMEEARETWEHIRWRDIRLDHVDSYNGRIRIDGTVHIEINGREDTTRVEIILHVIDGRIKEIRVIIR	1.3
DEKDRLSEELAKHLYRMMYTGDWERIFKMADPHVRLVIGDKEFHGRENFEETLRDHLEKIKNATMRLDDIELQGDKVHIFFTIHVNGREVEVEVHIRVIDGRIHHVDVQVRWV	1.49
DEKEDHMRKIALILIKDWLTGNEESLRHMADPNVRVHIHQGNKNIHKHGMEALRELWEEIRIRHFNLERQNVINGVVFIDGRVDGEVDGRRVDTDVEVIIVIVNGRMKLLSRHIE	1.34
DEKEEAARQIMTWLLEVLLTGDERLFEHNADPNVRIDVDGVDLVGMELFRHEVRRIDHMESRMRVRRVTVQGDKVRMEVEIEVTLFINGKEIRHRRESELIVLKIDGRWIIKSTHVK	1.56
DEKEEEMEIASELALHVWETGDPDEFLKLADPHVKIDFDGVDIHGMDKEHERWKRVKNLTMHIKRFSYQGDKVHLDVILIVNGRTETIHIIASKVNGRWLIKRVIINRR	1.37
DEKEEEYHRILREWMHWLLTGDWDKLLNNVDPHAKLTVNGREIHGMHLAVKLLVDTMRELRFHIEVKDTKVFNGVAFVDLRLHIHIGDKEHKNRSEVTLVIIDGRIHTIVIHDR	1.56
DEKEEEYKEMIRIMVEYLETGNEEDMNRLLDPHTKTEYHQGDKSDEFHGREEFMRLWQELGIDHFRVRDVDIVDGRVRIESELIVGDKRFNSYFFLIVVNGRATSASIHVE	2.27
DEKEEFMKKLSKLFVELWITGNEEIFNKLMDPNTRSDVNGVENIGRDEIIRFWKEWRRRFGIKHIEVEHVHAIGDKIEIHGIQKAENHHTEIHIRVNVVDGRIREVEVRTH	2.26
DEKEEFTRRFAQILIELWKTGDEEDMNNNMDPDVQNHSEFNGREVHLIGMELYVEHSEQWLNRVKNARIIWRHVDAQGDKILIHGDLIVNGKRIHVELDFYIVNGRIKSITIHER	2.02
DEKEEHFTTMMEIWLEIFRTGDWERLEKLMDPNVRHREVVDGRHLHLHGMENVSRLLHERENKLGANHIDLTHADIVNGRASIEGRVNYGDKRHKIRFDIHIVNGRVQHIQDIKI	-0.034
DEKEEHLDELARLFWEVHHTGNEEVFEELFDPRMRLIFNGQQYIGMEKAVKIESRVKNITVRLETYRVINGRIEIHENWRQGEKEIKFEIRIVVIDGVAKEMERIFREK	1.09
DEKEEHSKELVRLILRLILTGDEEILEDLMDPNVRANIDGREVHGWHEFVRILEKFLKEWRIHTTSLKRIRIIGDKAEVDLHEVGIVNGKKLEQDFHIHIEFVNGRLKEVHIEIR	1.69
DEKEEILRQIMELMLRLLLTGDEDRLTELIDPNVRVVFEGRTYHGMDEVTELWKEIRIDSFRFRDVKNVGDKARLHGEQKVRVGNYSHEHKSEYQLFVVNGRAKSLEIRWH	1.31
DEKEEILVDLFKHFLEAMLTGDEEQVNRLVDPNARHDIDGVEHHGWEFLEWFLSRVDHIELLEVKRVRNIDGRIEADLHIDITVNGKKERHDVEVHIVIIDGVFHSIKVIKH	2.23
DEKEELSKRAFERMLHWLETGDFDKFERYADPNVKTVIGDKYFIGRERVSRTVLHWLEVLGVDHRHVEDSDVHTFENHAVMDLHTRVHVDGQDREIRFILLVTKVNGRWNVTSIKIEIR	0.661
